Substitutions are numbered along the chain they refer to. Read-outs that look alike come from different tables or passages of the source. One block for each binder: values may come before it.
What was measured:
[1] = biological target: T1, mouse B7-H4 expressed on cells (mouse, UniProt Q7TSP5 25-257); assay: flow cytometry, mB7-H4/CT26 cells
T1 construct: also called cellular mB7-H4; mB7-H4/CT26
T1 sequence: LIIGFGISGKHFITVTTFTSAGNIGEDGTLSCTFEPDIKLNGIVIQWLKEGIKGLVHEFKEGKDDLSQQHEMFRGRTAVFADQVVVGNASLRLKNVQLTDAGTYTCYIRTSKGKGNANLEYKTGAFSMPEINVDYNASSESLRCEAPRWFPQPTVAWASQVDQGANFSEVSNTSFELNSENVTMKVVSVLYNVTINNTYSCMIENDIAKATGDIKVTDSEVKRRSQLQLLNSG
Method: (§1) Cells were harvested, washed once, and then re-suspended to the concentration of 1×10⁶ cells/ml in ice cold FACS Buffer. 25 μl of cell suspension was added to each well of a 96-well round-bottom microliter plate. Serially diluted antibodies or fusion proteins were added to each well and incubated for 1 hour at 4° C. Cells were washed three times by centrifugation at 1500 rpm for 5 minutes, and then stained with secondary antibody (1:200 dilution) for 30 min at 4° C. in the dark. Cells were washed once, re-suspended in 100 μl PBS buffer and then analyzed using Guava Flow Cytometry EasyCyte system.

[2] = biological target: T2, hB7-H4 (soluble human B7-H4, construct not named) (human, UniProt Q7Z7D3 25-259, limits assumed); assay: ELISA, hB7-H4
T2 construct: also called soluble hB7-H4
T2 sequence: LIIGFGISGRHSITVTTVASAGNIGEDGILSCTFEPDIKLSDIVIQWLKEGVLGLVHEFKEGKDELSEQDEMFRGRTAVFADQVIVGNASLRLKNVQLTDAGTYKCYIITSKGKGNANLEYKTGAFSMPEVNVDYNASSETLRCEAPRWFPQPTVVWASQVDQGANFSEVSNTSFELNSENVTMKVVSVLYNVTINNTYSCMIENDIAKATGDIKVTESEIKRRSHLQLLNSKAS
Method: (§2) About 1-2 μg/ml of human or mouse B7-H4-Fc (or his-tagged) was immobilized on ELISA plates (Immuno 2HB, Thermo scientific, cat #3455) at 4° C. overnight. After blocking the plates with 3% PBS+milk, serial diluted antibodies were added to the blocked plates and incubated at RT for 1-1.5 h. After washing the plates with PBS-T (0.05%), horse radish peroxidase (HRP)-conjugated antibody targeting the hFab was added to the plate. Signals were developed by adding 3,3′,5,5′-Tetramethylbenzidine (TMB (followed 1N of H₂SO₄ to stop the reaction. The OD at 450 nm was read by ELISA plate reader (Infinite M1000 from TECAN). GraphPad from Prism was used to plot OD450 vs. antibody concentration curve and to calculate the EC50 values.

[3] = biological target: T3, IgC domain of human B7-H4-Fc (human); assay: ELISA, coated hB7-H4 IgC domain
T3 construct: also called hB7-H4 IgC domain
T3 sequence (chain, as listed by the source): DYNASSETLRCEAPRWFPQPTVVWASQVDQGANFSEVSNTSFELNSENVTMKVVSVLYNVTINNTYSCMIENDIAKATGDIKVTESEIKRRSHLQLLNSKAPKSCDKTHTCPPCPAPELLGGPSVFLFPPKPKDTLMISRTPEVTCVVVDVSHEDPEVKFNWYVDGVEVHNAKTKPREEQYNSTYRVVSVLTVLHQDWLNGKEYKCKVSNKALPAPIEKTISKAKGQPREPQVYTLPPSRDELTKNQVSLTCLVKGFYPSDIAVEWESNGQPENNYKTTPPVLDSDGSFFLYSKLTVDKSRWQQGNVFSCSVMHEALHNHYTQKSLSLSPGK

[4] = biological target: T4, mB7-H4 (soluble mouse B7-H4, construct not named) (mouse, UniProt Q7TSP5 25-257, limits assumed); assay: ELISA, mB7-H4
T4 sequence: T1 sequence
Method: as §2

[5] = biological target: T5, human B7-H4 expressed on cells (human, UniProt Q7Z7D3 25-282); assay: flow cytometry, SK-BR-3 cells
T5 construct: Transfected CHO cells or tumor cell lines that carry hB7-H4; also called cellular hB7-H4
T5 sequence: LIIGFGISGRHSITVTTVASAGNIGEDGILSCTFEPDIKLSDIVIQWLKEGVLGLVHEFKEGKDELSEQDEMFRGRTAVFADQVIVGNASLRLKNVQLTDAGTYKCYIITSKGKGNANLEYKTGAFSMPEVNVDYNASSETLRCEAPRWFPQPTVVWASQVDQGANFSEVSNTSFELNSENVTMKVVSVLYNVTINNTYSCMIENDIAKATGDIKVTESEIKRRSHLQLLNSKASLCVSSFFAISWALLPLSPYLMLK
Method: as §1

[6] = biological target: T2, hB7-H4 (soluble human B7-H4, construct …); assay: SPR (Biacore)
Method: (§3) Surface plasmon resonance experiments were performed using a Biacore T200 instrument equipped with CM5 sensor chips. The system was equilibrated in running buffer HBS-EP pH 7.4. The ligands were immobilized using amine-coupling chemistry. The surfaces of flow cells one through four were activated for 5 min using an amine coupling kit at a flow rate of […]. The ligands (human B7-H4-Fc, human B7-H4-hism and mouse B7-H4-Fc; at a concentration of 5 μg/ml in 10 mM sodium acetate, pH 5.0) were immobilized at a density of 50-100 RU on flow cell 2, 3, 4 respectively. Flow cell 1 was left blank to serve as a reference surface. All flow cell surfaces were blocked with a 5 min injection of 1 M ethanolamine, pH 8.0. To collect kinetic binding data, the respective analyte (diluted in 1×HBS-EP buffer, pH 7.4) was injected over the four flow cells at concentrations of 100 nM to 0.1 nM at a flow rate of […] and at a temperature of 25° C. The protein complex was allowed to associate and dissociate for 180 seconds and 1000 or 1200 seconds, respectively. The surfaces were regenerated with a 30 second injection of 1.5 M NaCl/0.05 M NaOH. The data were fit to a simple 1:1 interaction model using the Langmuir fit option available within the Biaevaluaton software

[7] = biological target: T4, mB7-H4 (soluble mouse B7-H4, construct …); assay: SPR (Biacore)
Method: as §3

[8] = biological target: T6, IgC domain of mouse B7-H4-Fc (mouse; human); assay: ELISA, coated mB7-H4 IgC domain
T6 construct: also called mB7-H4 IgC domain
T6 sequence (chain, as listed by the source): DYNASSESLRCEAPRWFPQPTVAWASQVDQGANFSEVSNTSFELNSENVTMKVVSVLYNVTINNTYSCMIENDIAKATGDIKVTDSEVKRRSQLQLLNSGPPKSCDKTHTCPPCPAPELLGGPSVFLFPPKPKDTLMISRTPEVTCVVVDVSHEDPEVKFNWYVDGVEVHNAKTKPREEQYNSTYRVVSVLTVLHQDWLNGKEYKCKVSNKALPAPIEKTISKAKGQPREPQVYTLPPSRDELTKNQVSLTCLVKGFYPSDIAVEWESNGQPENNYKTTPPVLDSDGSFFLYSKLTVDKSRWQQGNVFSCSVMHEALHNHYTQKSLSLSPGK

mouse B7-H4-Fc [9] = biological target: T7, mouse B7-H4-Fc (mouse; human); assay: ELISA, coated mB7-H4-Fc
T7 construct: also called mB7-H4-Fc; mB7-H4-hFc
T7 sequence (chain, as listed by the source): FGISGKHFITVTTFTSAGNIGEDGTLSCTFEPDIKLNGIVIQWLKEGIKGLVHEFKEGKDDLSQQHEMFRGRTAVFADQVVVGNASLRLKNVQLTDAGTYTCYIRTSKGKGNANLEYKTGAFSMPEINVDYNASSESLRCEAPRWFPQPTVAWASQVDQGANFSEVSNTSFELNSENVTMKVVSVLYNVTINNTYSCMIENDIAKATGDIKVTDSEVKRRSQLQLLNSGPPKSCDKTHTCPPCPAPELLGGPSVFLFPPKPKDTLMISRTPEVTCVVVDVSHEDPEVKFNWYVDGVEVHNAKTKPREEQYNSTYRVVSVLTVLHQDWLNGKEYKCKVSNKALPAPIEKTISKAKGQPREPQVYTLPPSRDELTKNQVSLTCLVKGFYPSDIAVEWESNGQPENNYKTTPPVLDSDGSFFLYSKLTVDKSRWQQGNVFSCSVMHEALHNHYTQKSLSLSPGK
Method: as §2

mouse B7-H4-Fc [10] = biological target: T7, mouse B7-H4-Fc; assay: ELISA, coated mB7-H4-Fc (title on the sheet: Binding to mB7H4-Fc)
Method: (§4) ELISA experiments were performed to determine binding to hB7-H4-Fc (FIG. 4A), hB7-H4-his (FIG. 4B), hB7-H4 IgV domain (FIG. 4C), and mB7-H4 IgV domain (FIG. 4D). Flow cytrometry experiments were performed to determine binding to CHO cells expressing hB7-H4 (FIG. 4E) or mB7-H4 (FIG. 4F). […] A cross-reactive IgV binding antibody was used as a control.
as §2

[11] = biological target: T8, IgV domain of mouse B7-H4-Fc (mouse; human); assay: ELISA, coated mB7-H4 IgV domain
T8 construct: also called mB7-H4 IgV domain
T8 sequence (chain, as listed by the source): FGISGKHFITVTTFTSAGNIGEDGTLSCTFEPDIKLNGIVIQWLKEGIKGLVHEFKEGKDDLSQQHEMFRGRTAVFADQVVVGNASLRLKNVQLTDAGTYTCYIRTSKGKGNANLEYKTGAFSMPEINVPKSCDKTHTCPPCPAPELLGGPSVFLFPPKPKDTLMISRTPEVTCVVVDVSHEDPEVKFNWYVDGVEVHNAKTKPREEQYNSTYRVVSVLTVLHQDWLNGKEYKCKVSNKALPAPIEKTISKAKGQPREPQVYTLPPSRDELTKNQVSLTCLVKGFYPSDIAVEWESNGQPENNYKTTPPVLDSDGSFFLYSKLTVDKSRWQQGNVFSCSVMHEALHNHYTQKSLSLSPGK
Method: as §4, §2

[12] = biological target: T4, mB7-H4 (soluble mouse B7-H4, construct …); assay: summary of ELISA and flow cytometry
[13] = biological target: T1, mouse B7-H4 expressed on cells; assay: flow cytometry, CHO cells expressing mB7-H4
Method: (§5) ELISA experiments were performed to determine binding to hB7-H4-Fc (FIG. 3A), hB7-H4-his (FIG. 3B), mB7-H4-Fc (FIG. 3C), and hB7-H4 IgV domain (FIG. 3D). Flow cytometry experiments were performed to determine binding to CHO cells expressing hB7-H4 (FIG. 3E) or mB7-H4 (FIG. 3F).
as §1

mouse B7-H4-his [14] = biological target: T9, mouse B7-H4-his (mouse, UniProt Q7TSP5 25-257); assay: SPR (Biacore)
T9 construct: also called mB7-H4-his; mB7-H4-His; not shown: his tag
T9 sequence: T1 sequence
Method: as §3
(§6) The kinetics for binding of the different antibodies to their targets were examined using Biacore analysis.

human B7-H4-Fc [15] = biological target: T10, human B7-H4-Fc (human); assay: SPR (Biacore)
T10 construct: also called hB7-H4-Fc; hB7-H4 Fc
T10 sequence (chain, as listed by the source): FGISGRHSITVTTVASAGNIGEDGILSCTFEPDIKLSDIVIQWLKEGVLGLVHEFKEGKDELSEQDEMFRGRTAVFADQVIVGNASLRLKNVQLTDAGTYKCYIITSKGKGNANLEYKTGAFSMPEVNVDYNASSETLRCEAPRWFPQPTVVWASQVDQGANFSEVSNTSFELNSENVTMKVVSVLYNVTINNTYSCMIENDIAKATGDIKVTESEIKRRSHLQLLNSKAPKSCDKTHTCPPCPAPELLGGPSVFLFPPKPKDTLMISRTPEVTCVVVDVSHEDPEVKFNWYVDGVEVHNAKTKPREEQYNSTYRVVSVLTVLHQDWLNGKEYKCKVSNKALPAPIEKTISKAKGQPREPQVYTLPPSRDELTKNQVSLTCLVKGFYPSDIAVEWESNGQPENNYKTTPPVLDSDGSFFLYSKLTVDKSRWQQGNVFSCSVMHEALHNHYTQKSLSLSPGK
Method: as §3, §6

human B7-H4-his = biological target: T11, human B7-H4-his (human, UniProt Q7Z7D3 25-259); assay: SPR (Biacore)
T11 construct: also called hB7-H4-his; hB7-H4 his; not shown: his tag
T11 sequence: T2 sequence
Method: as §3, §6

human B7-H4-Fc [16] = biological target: T10, human B7-H4-Fc; assay: ELISA, coated hB7-H4-Fc
Method: as §4, §2

mouse B7-H4-Fc [17] = biological target: T7, mouse B7-H4-Fc; assay: ELISA, coated mB7-H4-Fc; remark: listed apart in the source
Method: as §5, §2

human B7-H4-Fc [18] = biological target: T10, human B7-H4-Fc; assay: ELISA, coated hB7-H4-Fc; remark: listed apart in the source
Method: as §2

mouse B7-H4-his [19] = biological target: T9, mouse B7-H4-his; assay: SPR (Biacore); remark: listed apart in the source
mouse B7-H4-Fc [20] = biological target: T7, mouse B7-H4-Fc; assay: SPR (Biacore)
[21] = biological target: T12, IgV domain of human B7-H4-Fc (human); assay: ELISA, coated hB7-H4 IgV domain
T12 construct: also called hB7-H4 IgV domain
T12 sequence (chain, as listed by the source): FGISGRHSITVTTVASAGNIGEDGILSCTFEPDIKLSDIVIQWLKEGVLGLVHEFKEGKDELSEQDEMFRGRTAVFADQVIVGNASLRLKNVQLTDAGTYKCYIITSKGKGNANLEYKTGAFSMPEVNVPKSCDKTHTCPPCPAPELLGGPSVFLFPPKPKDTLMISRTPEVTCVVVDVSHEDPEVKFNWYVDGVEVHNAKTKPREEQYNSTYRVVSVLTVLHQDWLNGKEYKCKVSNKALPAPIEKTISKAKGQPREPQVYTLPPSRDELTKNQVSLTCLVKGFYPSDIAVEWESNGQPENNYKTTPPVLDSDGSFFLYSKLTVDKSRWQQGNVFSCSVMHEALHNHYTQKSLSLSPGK
Method: as §2

[22] = biological target: T8, IgV domain of mouse B7-H4-Fc; assay: ELISA, coated mB7-H4 IgV domain; remark: listed apart in the source
Method: as §2

B1: 39A11/56A9 (antibody, human IgG1, V domains shown)
VH: EVQLLESGGGLVQPGGSLRLSCAASGFTFSSYGMHWVRQAPGKGLEWVASISSSSGYIYYADSVKGRFTISRDNSKNTLYLQMNSLRAEDTAVYYCARASSGMDVWGQGTTVTVSS
VL: DIQMTQSPSSLSASVGDRVTITCRASQSISSYLNWYQQKPGKAPKLLIYAASIRESGVPSRFSGSGSGTDFTLTISSLQPEDFATYYCQQYYTTPLTFGQGTKLEIK
notes: 39A11 VH with 56A9 VL
EC50 [1]: 1.85 nM
EC50 [2]: 0.081 nM
binding result [3]: no binding (tested: log 1 nM (10 nM))
EC50 [4]: 0.13 nM
EC50 [5]: 2.53 nM
Kd [6]: 1.21 nM
Kd [7]: 0.00138 nM
binding result [8]: no binding (tested: log 1 nM (10 nM))
binding result (mouse B7-H4-Fc [9]): binds

B2: 6C3/6C3 (antibody, human IgG1, V domains shown)
VH: EVQLLESGGGLVQPGGSLRLSCAASGFTFSSYAMHWVRQAPGKGLEWVASISGTGFTTRYADSVKGRFTISRDNSKNTLYLQMNSLRAEDTAVYYCARGGWFRDTPVDYWGQGTLVTVSS
VL: DIVMTQSPLSLPVTPGEPASISCRSSQSLLHSNGYNYLDWYLQKPGQSPQLLIYGASSLRSGVPDRFSGSGSGTDFTLKISRVEAZDVGVYYCMQASHWPPTFGQGTRLEIK
notes: The VL holds a letter Z
binding result (mouse B7-H4-Fc [10]): no binding (tested: log 0.3 ug/ml (about 2 ug/ml))
binding result [11]: no binding
binding result [12]: no binding
binding result [13]: no binding (tested: axis value -7 (log scale labelled nM))
binding result (mouse B7-H4-his [14]): no binding
Kd (human B7-H4-Fc [15]): 10.9 nM
Kd (human B7-H4-his): 6.3 nM
EC50 (read off the curve) (human B7-H4-Fc [16]): ~0.03 µg/mL

B5: 5E4/5E4 (antibody, human IgG1, V domains shown)
VH: QVQLVQSGAEVKKPGASVKVSCKASGYTFTSYDINWVRQAPGQGLEWMGWMNPNSGNTGYAQKFQGRVTMTRDTSTSTVYMELSSLRSEDTAVYYCARGELWFGEFDYYYYYGMDVWGQGTTVTVSS
VL: DIQMTQSPSSLSASVGDRVTITCRASQSISSYLNWYQQKPGKAPKLLIYGASSLQSGVPSRFSGSGSGTDFTLTISSLQPEDFATYYCQQADRIPFTFGRGTKVEIK
EC50 (read off the curve) (human B7-H4-Fc [18]): ~0.1 nM
Kd (human B7-H4-Fc [15]): 11.7 nM
Kd (human B7-H4-his): 10 nM
Kd (mouse B7-H4-his [19]): 9.09 nM
Kd (mouse B7-H4-Fc [20]): 14.1 nM
EC50 (read off the curve) (mouse B7-H4-Fc [9]): ~0.1 nM
binding result [21]: no binding (tested: 20 nM)
binding result [22]: no binding (tested: 20 nM)

Now from value to binder, other results behind:

binding result [11]: no binding
binding result [12]: no binding
binding result (mouse B7-H4-his [14]): no binding
Kd (human B7-H4-Fc [15]): 2.23 nM
Kd (human B7-H4-his): 28.5 nM
EC50 (read off the curve) (human B7-H4-Fc [16]): ~0.009 µg/mL
B3: 3D1/3D1 (antibody, human IgG1, V domains shown)
VH: QVQLVQSGAEVKKPGSSVKVSCKASGYSFISYAITWVRQAPGQGLEWIGGINPIFGTAKYAQKFQGRVTITADESTSTAYMELSSLRSEDTAVYYCAKGQALIQHWGQGTLVTVSS
VL: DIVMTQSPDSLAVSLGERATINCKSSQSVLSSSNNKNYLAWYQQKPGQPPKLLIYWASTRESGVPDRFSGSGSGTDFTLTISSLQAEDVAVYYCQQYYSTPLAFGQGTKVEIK
binding result (mouse B7-H4-Fc [10]): no binding (tested: log 0.3 ug/ml (about 2 ug/ml))

binding result [12]: no binding
binding result (mouse B7-H4-his [14]): no binding
Kd (human B7-H4-Fc [15]): 1.66 nM
Kd (human B7-H4-his): 1.11 nM
B4: 1F11/1F11 (antibody, human IgG1, V domains shown)
VH: QVQLVQSGAEVKKPGSSVKVSCKASGDTFTTYQIHWVRQAPGQGLEWMGGIMPIFGTTKYAQNFQGRVTITADESTSTAYMELSSLRSEDTAVYYCARRNYGMDVWGQGTTVTVSS
VL: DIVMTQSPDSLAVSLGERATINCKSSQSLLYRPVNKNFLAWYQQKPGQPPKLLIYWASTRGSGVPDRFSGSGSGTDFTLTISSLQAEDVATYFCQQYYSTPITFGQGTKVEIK
binding result [13]: no binding (tested: axis value -7 (log scale labelled nM))
binding result (mouse B7-H4-Fc [17]): no binding (tested: axis value -8 (log scale labelled nM))

binding result [12]: no binding
binding result (mouse B7-H4-his [14]): no binding
Kd (human B7-H4-Fc [15]): 3.57 nM
Kd (human B7-H4-his): 2.47 nM
B6: 1A12/1A12 (antibody, human IgG1, V domains shown)
VH: EVQLLESGGGLVKPGGSLRLSCAASGFTFSSYAMHWVRQAPGKGLEWVAVISYDGSNKYYADSVKGRFTISRDDSKNTLYLQMNSLKTEDTAVYYCARHGWDAFDIWGQGTLVTVSS
VL: B5 VL with S28D, S31N, Y32R, G50L, S56G, D92I, R93S, I94F, F96L, R100G
binding result [13]: no binding (tested: axis value -7 (log scale labelled nM))
binding result (mouse B7-H4-Fc [17]): no binding (tested: axis value -8 (log scale labelled nM))

From US20230312724A1 (KADMON, published 2023)
